The values below come from paper PMC8253215.

The target in test [1] is rat luteinizing hormone/chorionic gonadotropin receptor (rLH/CGR) (rat) (UniProt P16235).
The target in test [2] is rat follicle-stimulating hormone receptor (rFSHR) (rat) (UniProt P20395).
Chain of UniProt P20395 (P20395 18-692): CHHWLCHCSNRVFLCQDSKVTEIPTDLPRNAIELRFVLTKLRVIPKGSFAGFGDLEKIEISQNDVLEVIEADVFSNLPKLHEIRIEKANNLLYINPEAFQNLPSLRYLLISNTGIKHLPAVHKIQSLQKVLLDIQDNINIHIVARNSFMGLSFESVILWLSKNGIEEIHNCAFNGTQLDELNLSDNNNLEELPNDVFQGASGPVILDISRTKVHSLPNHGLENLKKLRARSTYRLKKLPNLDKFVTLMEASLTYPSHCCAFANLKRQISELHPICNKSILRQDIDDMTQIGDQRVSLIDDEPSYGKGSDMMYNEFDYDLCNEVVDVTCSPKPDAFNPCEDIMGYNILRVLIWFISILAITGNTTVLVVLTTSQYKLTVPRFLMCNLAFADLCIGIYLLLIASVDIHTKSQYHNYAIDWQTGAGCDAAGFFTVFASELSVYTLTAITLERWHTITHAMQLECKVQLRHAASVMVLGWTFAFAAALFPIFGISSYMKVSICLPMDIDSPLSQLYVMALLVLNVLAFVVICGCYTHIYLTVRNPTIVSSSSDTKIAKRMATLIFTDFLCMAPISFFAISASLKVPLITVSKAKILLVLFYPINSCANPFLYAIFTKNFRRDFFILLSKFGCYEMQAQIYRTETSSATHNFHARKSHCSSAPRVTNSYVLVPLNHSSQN

Chain of UniProt P16235 (P16235 27-700): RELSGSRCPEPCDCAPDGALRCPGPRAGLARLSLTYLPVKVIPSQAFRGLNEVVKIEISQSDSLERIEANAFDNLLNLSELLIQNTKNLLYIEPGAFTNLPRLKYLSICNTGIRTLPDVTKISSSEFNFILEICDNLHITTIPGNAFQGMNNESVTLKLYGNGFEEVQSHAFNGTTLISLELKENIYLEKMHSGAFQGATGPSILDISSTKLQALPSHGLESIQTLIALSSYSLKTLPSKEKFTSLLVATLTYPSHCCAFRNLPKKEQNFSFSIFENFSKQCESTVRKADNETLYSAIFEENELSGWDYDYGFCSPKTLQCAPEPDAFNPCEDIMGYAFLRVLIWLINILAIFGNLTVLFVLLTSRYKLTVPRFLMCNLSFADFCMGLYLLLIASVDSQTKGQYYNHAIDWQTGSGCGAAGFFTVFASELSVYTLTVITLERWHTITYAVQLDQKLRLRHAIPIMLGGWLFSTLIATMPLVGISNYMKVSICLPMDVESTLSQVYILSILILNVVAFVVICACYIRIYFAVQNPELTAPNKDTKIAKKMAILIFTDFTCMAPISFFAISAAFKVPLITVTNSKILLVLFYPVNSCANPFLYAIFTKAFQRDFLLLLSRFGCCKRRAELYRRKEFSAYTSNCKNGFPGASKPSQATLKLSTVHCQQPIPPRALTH

In test [1], “rec-eCGβV102G;F103P;R104K/α (from UniProt P08751 21-169; P01220 25-120) (ligand)” registered an EC50 of cAMP response (HTRF) in CHO-K1 cells expressing rLH/CGR of 0.013 ng/mL. In test [2], this substance came in with an EC50 of cAMP response (HTRF) in CHO-K1 cells expressing rFSHR of 2.86 ng/mL. On to “rec-eCGβV102G/α (from UniProt P08751 21-169; P01220 25-120) (ligand)”, for which, in test [1], the EC50 of cAMP response (HTRF) in CHO-K1 cells expressing rLH/CGR worked out at 0.015 ng/mL. In test [2], the EC50 of cAMP response (HTRF) in CHO-K1 cells expressing rFSHR turned out to be 0.79 ng/mL. The substance “single-chain recombinant equine chorionic gonadotropin β/α, wild type (rec-eCGβ/α-wt) (from UniProt P08751 21-169; P01220 25-120) (ligand)” displayed an EC50 of cAMP response (HTRF) in CHO-K1 cells expressing rFSHR in test [2] of 0.16 ng/mL. For “rec-eCGβF103P;R104K/α (from UniProt P08751 21-169; P01220 25-120) (ligand)”, in test [1], the EC50 of cAMP response (HTRF) in CHO-K1 cells expressing rLH/CGR turned out to be 0.037 ng/mL. In test [2], this substance came in with an EC50 of cAMP response (HTRF) in CHO-K1 cells expressing rFSHR of 6.4 ng/mL. Taken in the same sequence, the figures for “rec-eCGβV102G;R104K/α (from UniProt P08751 21-169; P01220 25-120) (ligand)” were 0.038 ng/mL and 5.45 ng/mL. The substance “rec-eCGβR104K/α (from UniProt P08751 21-169; P01220 25-120) (ligand)” displayed an EC50 of cAMP response (HTRF) in CHO-K1 cells expressing rLH/CGR in test [1] of 0.033 ng/mL. This substance also showed an EC50 of cAMP response (HTRF) in CHO-K1 cells expressing rFSHR in test [2] of 0.98 ng/mL. In turn, “rec-eCGβV102G;F103P/α (from UniProt P08751 21-169; P01220 25-120) (ligand)” yielded an EC50 of cAMP response (HTRF) in CHO-K1 cells expressing rLH/CGR in test [1] of 0.016 ng/mL. The same substance returned an EC50 of cAMP response (HTRF) in CHO-K1 cells expressing rFSHR in test [2] of 1.75 ng/mL.

“rec-eCGβF103P/α (from UniProt P08751 21-169; P01220 25-120) (ligand)”: the EC50 of cAMP response (HTRF) in CHO-K1 cells expressing rLH/CGR in test [1] is 0.018 ng/mL. The EC50 of cAMP response (HTRF) in CHO-K1 cells expressing rFSHR in test [2] turned out to be 0.99 ng/mL.
